From the supplement of paper PMC11246515
± gives the standard deviation of the averaged measurements.

Assay: total protein half-life in vivo (active degradation + dilution); higher = more stable protein
[1] = E. coli NCM3722 delta-clpP delta-lon delta-hslV, growth: N-lim chemostat, doubling time 6 h
[2] = E. coli NCM3722 delta-clpP, growth: N-lim chemostat, doubling time 6 h
[3] = E. coli NCM3722 delta-hslV, growth: N-lim chemostat, doubling time 6 h
[4] = E. coli NCM3722 delta-lon, growth: N-lim chemostat, doubling time 6 h
[5] = E. coli NCM3722 delta-smpB, growth: N-lim chemostat, doubling time 6 h
[6] = wild type E. coli NCM3722, growth: C-lim chemostat, doubling time 3 h
[7] = wild type E. coli NCM3722, growth: C-lim chemostat, doubling time 6 h
[8] = wild type E. coli NCM3722, growth: C-lim chemostat, doubling time 12 h
[9] = wild type E. coli NCM3722, growth: N-lim chemostat, doubling time 6 h
[10] = wild type E. coli NCM3722, growth: N-lim chemostat, doubling time 12 h
[11] = wild type E. coli NCM3722, growth: P-lim chemostat, doubling time 6 h
[12] = wild type E. coli NCM3722, growth: P-lim chemostat, doubling time 12 h

Sequence | total protein half-life in vivo [1] [h] | total protein half-life in vivo [2] [h] | total protein half-life in vivo [3] [h] | total protein half-life in vivo [4] [h] | total protein half-life in vivo [5] [h] | total protein half-life in vivo [6] [h] | total protein half-life in vivo [7] [h] | total protein half-life in vivo [8] [h] | total protein half-life in vivo [9] [h] | total protein half-life in vivo [10] [h] | total protein half-life in vivo [11] [h] | total protein half-life in vivo [12] [h]
MDSSFTPIEQMLKFRASRHEDFPYQEILLTRLCMHMQSKLLENRNKMLKAQGINETLFMALITLESQENHSIQPSELSCALGSSRTNATRIADELEKRGWIERRESDNDRRCLHLQLTEKGHEFLREVLPPQHNCLHQLWSALSTTEKDQLEQITRKLLSRLDQMEQDGVVLEAMS [P0ACR9] | 6.37 ± 0.21 | 6.705 ± 0.017 | 5.82 ± 1 | 5.39 ± 0.61 | 4.81 ± 0.11 | 2.7 ± 0.27 | 5.49 ± 0.42 | 11 ± 0.57 | 4.78 ± 0.44 | 7.04 ± 0.45 | 4.86 ± 0.51 | 9.8 ± 0.2
MSEIVVSKFGGTSVADFDAMNRSADIVLSDANVRLVVLSASAGITNLLVALAEGLEPGERFEKLDAIRNIQFAILERLRYPNVIREEIERLLENITVLAEAAALATSPALTDELVSHGELMSTLLFVEILRERDVQAQWFDVRKVMRTNDRFGRAEPDIAALAELAALQLLPRLNEGLVITQGFIGSENKGRTTTLGRGGSDYTAALLAEALHASRVDIWTDVPGIYTTDPRVVSAAKRIDEIAFAEAAEMATFGAKVLHPATLLPAVRSDIPVFVGSSKDPRAGGTLVCNKTENPPLFRALALRRNQTLLTLHSLNMLHSRGFLAEVFGILARHNISVDLITTSEVSVALTLDTTGSTSTGDTLLTQSLLMELSALCRVEVEEGLALVALIGNDLSKACGVGKEVFGVLEPFNIRMICYGASSHNLCFLVPGEDAEQVVQKLHSNLFE | 4.06 ± 0.69 | 2.98 ± 0.29 | 2.67 ± 0.073 | 3.15 ± 0.3 | 2.54 ± 0.31 | 3.142 ± 0.0098 | 4.67 ± 0.34 | 8.44 ± 2.4 | 2.9 ± 0.23 | 4.25 ± 0.55 | 5.46 ± 0.4 | 10.1 ± 1.1
MPLPDFHVSEPFTLGIELEMQVVNPPGYDLSQDSSMLIDAVKNKITAGEVKHDITESMLELATDVCRDINQAAGQFSAMQKVVLQAATDHHLEICGGGTHPFQKWQRQEVCDNERYQRTLENFGYLIQQATVFGQHVHVGCASGDDAIYLLHGLSRFVPHFIALSAASPYMQGTDTRFASSRPNIFSAFPDNGPMPWVSNWQQFEALFRCLSYTTMIDSIKDLHWDIRPSPHFGTVEVRVMDTPLTLSHAVNMAGLIQATAHWLLTERPFKHQEKDYLLYKFNRFQACRYGLEGVITDPHTGDRRPLTEDTLRLLEKIAPSAHKIGASSAIEALHRQVVSGLNEAQLMRDFVADGGSLIGLVKKHCEIWAGD | 4.72 ± 0.45 | 4.3 ± 0.47 | 4.35 ± 0.24 | 4.85 ± 0.29 | 4.73 | – | – | 9.5 ± 0.29 | 4.59 | 9.74 | 6.17 ± 1 | 11.6 ± 0.85
MGKAVIAIHGGAGAISRAQMSLQQELRYIEALSAIVETGQKMLEAGESALDVVTEAVRLLEECPLFNAGIGAVFTRDETHELDACVMDGNTLKAGAVAGVSHLRNPVLAARLVMEQSPHVMMIGEGAENFAFARGMERVSPEIFSTSLRYEQLLAARKEGATVLDHSGAPLDEKQKMGTVGAVALDLDGNLAAATSTGGMTNKLPGRVGDSPLVGAGCYANNASVAVSCTGTGEVFIRALAAYDIAALMDYGGLSLAEACERVVMEKLPALGGSGGLIAIDHEGNVALPFNTEGMYRAWGYAGDTPTTGIYREKGDTVATQ | 4.9 ± 0.24 | 3.77 ± 0.08 | 3.58 ± 0.043 | 3.62 ± 0.16 | 3.16 ± 0.25 | 2.78 ± 0.19 | 4.99 ± 0.29 | 11.2 ± 4.6 | 3.47 ± 0.42 | 4.78 ± 0.12 | 4.75 ± 0.052 | 8.26 ± 0.14
MTVNSSRNALKRRTWALFMFFFLPGLLMASWATRTPAIRDILSVSIAEMGGVLFGLSIGSMSGILCSAWLVKRFGTRNVILVTMSCALIGMMILSLALWLTSPLLFAVGLGVFGASFGSAEVAINVEGAAVEREMNKTVLPMMHGFYSLGTLAGAGVGMALTAFGVPATVHILLAALVGIAPIYIAIQAIPDGTGKNAADGTQHGEKGVPFYRDIQLLLIGVVVLAMAFAEGSANDWLPLLMVDGHGFSPTSGSLIYAGFTLGMTVGRFTGGWFIDRYSRVAVVRASALMGALGIGLIIFVDSAWVAGVSVVLWGLGASLGFPLTISAASDTGPDAPTRVSVVATTGYLAFLVGPPLLGYLGEHYGLRSAMLVVLALVILAAIVAKAVAKPDTKTQTAMENS | – | 4.21 | – | – | – | – | – | – | – | – | – | 7.65
MKKGTVLNSDISSVISRLGHTDTLVVCDAGLPIPKSTTRIDMALTQGVPSFMQVLGVVTNEMQVEAAIIAEEIKHHNPQLHETLLTHLEQLQKHQGNTIEIRYTTHEQFKQQTAESQAVIRSGECSPYANIILCAGVTF | 5.99 ± 0.1 | 5.79 ± 2.1 | 4.85 | – | 4.78 ± 0.7 | 3.49 ± 0.2 | 6.69 ± 1.8 | 10.6 ± 0.4 | 4.95 ± 0.51 | 6.08 | 6.43 ± 0.15 | 13.3 ± 2.3
MRTLLAILLFPLLVQAAGEGMWQASSVGITLNHRGESMSSAPLSTRQPASGLMTLVAWRYQLIGPTPSGLRVRLCSQSRCVELEGQSGTTVAFSGIAAAEPLRFIWEVPGGGRLIPPLKVQRNEVIVNYR | – | – | – | – | – | – | 4.74 | 8.78 ± 2.5 | – | – | – | –
MATYLIGDVHGCYDELIALLHKVEFTPGKDTLWLTGDLVARGPGSLDVLRYVKSLGDSVRLVLGNHDLHLLAVFAGISRNKPKDRLTPLLEAPDADELLNWLRRQPLLQIDEEKKLVMAHAGITPQWDLQTAKECARDVEAVLSSDSYPFFLDAMYGDMPNNWSPELRGLGRLRFITNAFTRMRFCFPNGQLDMYSKESPEEAPAPLKPWFAIPGPVAEEYSIAFGHWASLEGKGTPEGIYALDTGCCWGGTLTCLRWEDKQYFVQPSNRHKDLGEAAAS | 4.24 ± 0.43 | 4.196 ± 0.017 | 3.52 ± 0.16 | 3.56 ± 0.044 | 3.68 ± 0.14 | 2.71 ± 0.18 | 4.718 ± 0.0074 | 6.99 ± 0.28 | 4.03 ± 0.15 | 5.76 ± 0.16 | 4.83 ± 0.51 | 9.31 ± 0.91
MKPDAHQVKQFLLNLQDTICQQLTAVDGAEFVEDSWQREAGGGGRSRVLRNGGVFEQAGVNFSHVHGEAMPASATAHRPELAGRSFEAMGVSLVVHPHNPYVPTSHANVRFFIAEKPGADPVWWFGGGFDLTPFYGFEEDAIHWHRTARDLCLPFGEDVYPRYKKWCDEYFYLKHRNEQRGIGGLFFDDLNTPDFDRCFAFMQAVGKGYTDAYLPIVERRKAMAYGERERNFQLYRRGRYVEFNLVWDRGTLFGLQTGGRTESILMSMPPLVRWEYDYQPKDGSPEAALSEFIKVRDWV | 5.53 ± 1.4 | 4.55 ± 0.073 | 5 ± 0.44 | 5.01 ± 0.37 | 4.05 ± 0.34 | – | 5.24 ± 0.9 | 10.1 ± 0.14 | 4.29 ± 0.35 | 7.38 ± 0.34 | 6.06 ± 0.66 | 11.7 ± 0.97
MRCKGFLFDLDGTLVDSLPAVERAWSNWARRHGLAPEEVLAFIHGKQAITSLRHFMAGKSEADIAAEFTRLEHIEATETEGITALPGAIALLSHLNKAGIPWAIVTSGSMPVARARHKIAGLPAPEVFVTAERVKRGKPEPDAYLLGAQLLGLAPQECVVVEDAPAGVLSGLAAGCHVIAVNAPADTPRLNEVDLVLHSLEQITVTKQPNGDVIIQ | 4.84 ± 0.48 | 5.45 ± 1.7 | 4.91 ± 0.61 | 5.46 ± 0.45 | 3.992 ± 0.0097 | 3.06 ± 0.1 | 6.07 ± 0.31 | 10.1 ± 0.43 | 4.54 ± 0.39 | 6.8 ± 0.18 | 5.77 ± 0.43 | 11.4 ± 0.17
MKQKVVSIGDINVANDLPFVLFGGMNVLESRDLAMRICEHYVTVTQKLGIPYVFKASFDKANRSSIHSYRGPGLEEGMKIFQELKQTFGVKIITDVHEPSQAQPVADVVDVIQLPAFLARQTDLVEAMAKTGAVINVKKPQFVSPGQMGNIVDKFKEGGNEKVILCDRGANFGYDNLVVDMLGFSIMKKVSGNSPVIFDVTHALQCRDPFGAASGGRRAQVAELARAGMAVGLAGLFIEAHPDPEHAKCDGPSALPLAKLEPFLKQMKAIDDLVKGFEELDTSK [P0A715] | 6.1 ± 0.77 | 5.88 ± 1.5 | 5.22 ± 0.14 | 6.19 ± 0.93 | 4.85 ± 0.15 | 3.15 ± 0.56 | 6.05 ± 0.51 | 10.3 ± 1.2 | 5.01 ± 0.13 | 9.03 ± 0.37 | 5.58 ± 0.48 | 12.9 ± 1.5
MFDFSKVVDRHGTWCTQWDYVADRFGTADLLPFTISDMDFATAPCIIEALNQRLMHGVFGYSRWKNDEFLAAIAHWFSTQHYTAIDSQTVVYGPSVIYMVSELIRQWSETGEGVVIHTPAYDAFYKAIEGNQRTVMPVALEKQADGWFCDMGKLEAVLAKPECKIMLLCSPQNPTGKVWTCDELEIMADLCERHGVRVISDEIHMDMVWGEQPHIPWSNVARGDWALLTSGSKSFNIPALTGAYGIIENSSSRDAYLSALKGRDGLSSPSVLALTAHIAAYQQGAPWLDALRIYLKDNLTYIADKMNAAFPELNWQIPQSTYLAWLDLRPLNIDDNALQKALIEQEKVAIMPGYTYGEEGRGFVRLNAGCPRSKLEKGVAGLINAIRAVR | 5.24 ± 1.1 | 4.66 ± 0.39 | 4.58 ± 0.52 | 5.26 ± 0.077 | 4.53 ± 0.058 | 3.15 ± 0.095 | 5.26 ± 0.26 | 10.2 ± 2 | 4.39 ± 0.095 | 7.95 ± 0.93 | 5.78 ± 0.25 | 11 ± 1.4
MTKKKAHKPGSATIALNKRARHEYFIEEEFEAGLALQGWEVKSLRAGKANISDSYVLLRDGEAFLFGANITPMAVASTHVVCDPTRTRKLLLNQRELDSLYGRVNREGYTVVALSLYWKNAWCKVKIGVAKGKKQHDKRSDIKEREWQVDKARIMKNAHR [P0A832] | 6.34 ± 0.4 | 6.17 ± 1.2 | 6.55 ± 0.43 | – | – | 3.07 ± 0.46 | – | 13.1 ± 0.6 | 5.94 ± 0.25 | – | 5.73 ± 0.2 | 11.7 ± 0.31
MSQLCPCGSAVEYSLCCHPYVSGEKVAPDPEHLMRSRYCAFVMQDADYLIKTWHPSCGAAALRAELMAGFAHTEWLGLTVFEHCWQDADNIGFVSFVARFTEGGKTGAIIERSRFLKENGQWYYIDGTRPQFGRNDPCPCGSGKKFKKCCGQ | 5.73 ± 0.5 | – | > 8 | – | 5.47 | – | 6.31 | – | 5.43 ± 0.68 | 8.52 ± 0.57 | 5.3 ± 0.3 | –
